{"source": "patent US20240425589A1", "about": "“CYTOTOXICITY-INDUCING THERAPEUTIC AGENT FOR USE IN TREATMENT OF CANCER” (CHUGAI SEIYAKU KABUSHIKI KAISHA, priority 2021, published 2024)", "key": {"cyno CLDN6 VLP": {"system": "cyno CLDN6 VLP", "assay": "Biacore T200 SPR affinity to cyno CLDN6 VLP", "type": "binding, cynomolgus", "conditions": "cyno CLDN6, 25 degree C, pH 7.4", "experimental": "The binding affinity of the anti-CLDN6/Dual-Fab tri-specific antibody against human and cynomolgus (cyno) CLDN6 VLP (virus-like particle) at pH 7.4 was determined at 25 degree C. using Biacore T200 instrument (GE Healthcare). Anti-human CD81 (BD Pharmingen) antibody was immobilized onto all flow cells of a C1 sensor chip using amine coupling kit (GE Healthcare). Human and cyno CLDN6 VLP were captured onto the sensor surface by the anti-human CD81 antibody. Each VLP was 5-fold dilution by buffer (20 mM NaPhosphate, 150 mM NaCl, 0.1 mg/mL BSA, 0.005% NaN3, pH 7.4). Tested antibody was prepared in buffer (20 mM NaPhosphate, 150 mM NaCl, 0.1 mg/mL BSA, 0.005% NaN3, pH 7.4). Anti-CLDN6/Dual-Fab tri-specific antibody was injected at 50 and 200 nM, followed by dissociation. Sensor surface was regenerated each cycle with 0.1% SDS and 100 mM H3PO4. […] Binding affinities were determined by processing and fitting the data to 1:1 binding model using Biacore T200 Evaluation software, version 2.0 (GE Healthcare)."}, "SNG-M": {"system": "SNG-M", "assay": "SNG-M xenograft in huNOG mice, combination with carboplatin", "type": "in vivo", "conditions": "30 days after transplantation; CS4135 0.5 mg/kg iv day 13, carboplatin 40 mg/kg ip days 13, 16, 20", "experimental": "In this test, NOG (huNOG) mice (described in the aforementioned Example 13) transplanted with human uterus cancer cell line SNG-M and human CD34-positive cells were used. The SNG-M cell line was transplanted subcutaneously to the right flank of the mice, and the mice were divided into groups 13 days after transplantation. Individuals whose tumor volume reached 130 to 244 mm^3 were divided into groups. Vehicle 1 and CS4135 were administered into the mouse tail vein 13 days after transplantation. PBS containing 0.05% Tween-20 was used as Vehicle 1. Vehicle 2 and carboplatin (Bristol Myers Squibb Company) were administered intraperitoneally to the mice 13, 16, and 20 days after transplantation. Physiological saline was used as Vehicle 2.\nTumor volume was measured 13, 16, 20, 23, 26, and 30 days after transplantation, and the average tumor volume was indicated for each group.\nThe tumor volume was calculated by the following equation: […]\n(§1) Tumor Growth Inhibition (TGI) was calculated by the following equation: […]"}, "CLDN6-LLC1": {"system": "CLDN6-LLC1", "assay": "CLDN6-LLC1 syngenic model, CS4135 single agent", "type": "in vivo, hCD137 KI/hCD3Tg mice", "experimental": "In this test, lung cancer cell line LLC1 forced to express claudin 6 (CLDN6) (CLDN6-LLC1) and hCD137 KI/hCD3Tg mice (described in the above-mentioned Example 7) were used. The CLDN6-LLC1 cell line was transplanted subcutaneously to the right flank of the mice, and the mice were divided into groups 7 days after transplantation. Individuals whose tumor volume reached 262 to 353 mm^3 were divided into groups. The vehicle and CS4135 were administered into the mouse tail vein 8 days after transplantation. PBS containing 0.05% Tween-20 was used as the vehicle.\nTumor volume was measured 7, 10, and 14 days after transplantation, and the average tumor volume was indicated for each group. The tumor volume was calculated by the following equation: […]\nas §1\nThe resected tumor tissue was weighed, and then a lymphocyte fraction was isolated. The lymphocyte fraction obtained by tissue disruption using a Tumor Dissociation Kit, mouse (Miltenyi Biotec) and then by use of a cell strainer was used. The obtained tumor-derived lymphocyte fraction was subjected to flow cytometry (FCM) analysis.\nFCM was used to analyze the number of tumor-derived T cells. The number of CD8-positive T cells per tumor weight was calculated using the tumor weight value and the number of CD8-positive T cells according to FCM. […]"}, "UWB1.289": {"system": "UWB1.289", "assay": "LDH release cytotoxicity on olaparib-treated UWB1.289", "type": "cell-based", "conditions": "UWB1.289, olaparib 3 μM three days vs DMSO, human PBMC", "experimental": "The effect of the enhanced induction of CLDN6 expression in BRCA1-deficient ovarian cancer cell line UWB1.289, caused by the PARP inhibitor (olaparib), on the cytotoxic activity of anti-CLDN6/Dual-Fab tri-specific antibody CS4135 was assessed.\nBRCA1-deficient ovarian cancer cell line UWB1.289 (ATCC) or BRAC1 wildtype ovarian cancer cell line OV-90 (ATCC) which express human CLDN6 were used as target cells.\nEach target cell (3×10^5 cells) were seeded at 5 mL into a 25 cm^2-flask. Two flasks were prepared for each target cell. After culturing overnight, olaparib was added at a final concentration of 3 μM to one of the two flasks. DMSO was added to the other flask. After incubating the flasks for three days, the target cells were recovered, and the cytotoxic activity of the CS4135 antibody was evaluated by […] (LDH) release assay using human PBMC as the effector cell."}, "MC38/CLDN6": {"system": "MC38/CLDN6", "assay": "xCELLigence mechanism assay with KLH/CD137 bispecific antibody", "type": "cell-based, mouse", "conditions": "1 nM", "experimental": "The mechanism of T-cell dependent growth inhibition mediated by the anti-CLDN6/Dual-Fab tri-specific antibodies was assessed by cell proliferation assay using an xCELLigence RTCA MP instrument (ACEA Biosciences).\nMouse colon cancer cell line MC38/CLDN6 expressing human CLDN6 was used as target cells. Spleens were collected aseptically from hCD3 transgenic mice and hCD3/hCD137 knock-in mice. The spleen was ground in RPMI-1640 medium containing 10% FBS, passed through a 70-μm cell strainer, and then centrifuged (at 1200 rpm for 10 minutes at room temperature) to isolate spleen cells. The isolated spleen cells were hemolyzed, then T cells alone were isolated using CD3 MicroBeads (Miltenyi Biotec), and used as effector cells.\nThe background was measured by adding the culture medium to an E-Plate 96 plate (Roche Diagnostics) at 50 μL/well, and then 5×10^3 target cells were plated at 50 μL/well. After culturing overnight, 1 nM (final concentration) of CS4135 together with the KLH/CD137 bispecific antibody at a concentration selected from 100 nM or 500 nM (final concentration) were added at 25 μL/well, respectively. […] Cell growth was monitored every 10 min using xCELLigence over 48 hours during the incubation of the plates. The rate of cell growth inhibition (CGI: %) was determined from the cell index value according to the following formula: […]"}}}
{"molecule": "PPU4135: anti-CLDN6/Dual-Fab tri-specific antibody, chains SEQ ID NOs 42, 51, 56, 69; CS4135 same antibody (protein) chain 1: QVQLVESGGGVVQPGGSLRLSCAASGFTFSSYTMSWVRQAPGQGLEWMGTISSGGGRTYYPDSVKGRFTISRDNSKNTLYLQMNSLRDEDTAVYYCARGDYRYDGFAYWGEGTLVTVSSASTKGPSVFPLAPSSKSTSGGTAALGCLVEDYFPEPVTVSWNSGALTSGVHTFPAVLESSGLYSLSSVVTVPSSSLGTQTYICNVNHKPSNTKVDKRVEPKSCDKTHTCPPCPAPEAAGGPSVFLFPPKPKDTLMISRTPEVTCVVVDVSHEDPEVKFNWYVDGVEVHNAKTKPREEQYASTYRVVSVLTVLHQDWLNGKEYKCKVSNKALPAPIEKTISKAKGQPREPQVYTLPPSREEMTKNQVSLTCLVKGFYPSDIAVEWESNGQPENNYKTTPPVLDSDGSFFLYSKLTVDKSRWQQGNVFSCSVMHEALHNHYTQESLSLSP chain 2: DIQMTQSPSSLSASVGDRVTITCRASYNIDSYLAWYQQKPGKAPELLIYYSTLLVDGVPDRFSGSRSGTDFTLTISSLQPEDFATYYCQHYYSIPYTFGQGTKVEIERTVAAPSVFIFPPSDEQLKSGTAKVVCLLNNFYPREAKVQWKVDNALQSGNSKESVTEQDSKDSTYSLSSTLTLSKADYEKHKVYACEVTHQGLSSPVTKSFNRGEC chain 3: QVQLVESGGGLVQPGRSLRLSCAASGFKFSNVWFHWVRQAPGKGLEWVAQIKDYYNAYAAYYAPSVKGRFTISRDDSKNSIYLQMNSLKTEDTAVYYCHYVHYASASTLLPAEGVDAWGQGTTVTVSSASTKGPSVFPLAPSSKSTSGGTAALGCLVKDYFPEPVTVSWNSGALTSGVHTFPAVLKSSGLYSLSSVVTVPSSSLGTQTYICNVNHKPSNTKVDKRVEPKSCDKTHTCPPCPAPEAAGGPSVFLFPPKPKDTLMISRTPEVTCVVVDVSHEDPEVKFNWYVDGVEVHNAKTKPREEQYASTYRVVSVLTVLHQDWLNGKEYKCKVSNKALPAPIEKTISKAKGQPREPQVYTLPPSRKEMTKNQVSLTCLVKGFYPSDIAVEWESNGQPENNYKTTPPVLDSDGSFFLYSKLTVDKSRWQQGNVFSCSVMHEALHNHYTQKSLSLSP chain 4: DIVMTQSPLSLPVTPGEPASISCQPSQEVVHMNRNTYLHWYQQKPGQAPRLLIYKVSNRFPGVPDRFSGSGSGTDFTLKISRVEAEDVGVYYCAQGTSHPFTFGQGTKLEIKRTVAAPSVFIFPPSDEQLKSGTAEVVCLLNNFYPREAKVQWKVDNALQSGNSEESVTEQDSKDSTYSLSSTLTLSKADYEKHKVYACEVTHQGLSSPVTKSFNRGEC", "values": [{"measurement": "ka", "setting": "cyno CLDN6 VLP", "result": 218000, "unit": "M⁻¹ s⁻¹"}, {"measurement": "kd", "setting": "cyno CLDN6 VLP", "result": 0.000821, "unit": "s⁻¹"}, {"measurement": "Tumor growth inhibition: TGI", "setting": "SNG-M", "result": 35, "unit": "%"}, {"measurement": "Tumor growth inhibition: TGI", "setting": "CLDN6-LLC1; 14 days after transplantation, 0.25 mg/kg iv day 8", "result": 71, "unit": "%"}, {"measurement": "number of CD8-positive T cells per tumor weight", "setting": "CLDN6-LLC1; 14 days after tumor transplantation (Day 6 after administration), 0.25 mg/kg", "result": "significant increase"}, {"measurement": "cytotoxic activity after addition of olaparib", "setting": "UWB1.289", "result": "enhancement of cytotoxicity"}, {"measurement": "cell growth inhibition rate", "setting": "MC38/CLDN6; T cells from hCD3/hCD137 knock-in mice vs hCD3 transgenic mice, no KLH/CD137 bispecific antibody", "result": "significantly higher"}, {"measurement": "cell growth inhibition rate", "setting": "MC38/CLDN6; hCD3/hCD137 knock-in T cells, 500 nM KLH/CD137 bispecific antibody added", "result": "decreased to the same level as when using hCD3 transgenic mice-derived T cells"}]}
